Source: article doi:10.1101/580712

Molecular target: human Macrophage Expressed Gene-1 (MPEG-1) soluble ectodomain, wild type (human) (UniProt Q2M385)
Assay: cryo-EM structure

Substance: human Macrophage Expressed Gene-1 (MPEG-1) soluble ectodomain, wild type (from UniProt Q2M385 17-653) (domain or fragment)
- stoichiometry N (subunits per ring): 16
